Data: the supplement of paper PMC10567573

B1: ZNF263 (parent)
chain: KPYKCTLCGENFSHRSNLIRHQRI

Variants of: B1
Assay: protein stability index of a GFP-peptide fusion (GPS, HEK-293T) (PSI 1-6); higher = more stable
Conditions: c terminus: a fixed tail appended
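Also: lentivirally expressed fusions sorted by FACS into six bins by GFP to DsRed ratio, PSI derived from sequencing read proportions per bin multiplied by bin number.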

Compared with KPVKCTLCGENFSHRSNLIRHQRI [Y3V], KPWKCTLCGENFSHRSNLIRHQRI [Y3W] is higher in protein stability index: 2.28 for the first, 2.42 for the second.

Compared with KPTKCTLCGENFSHRSNLIRHQRI [Y3T], KPGKCTLCGENFSHRSNLIRHQRI [Y3G] is lower in protein stability index: 2.4 for the first, 1.84 for the second.

Going from KPFKCTLCGENFSHRSNLIRHQRI [Y3F] to KPDKCTLCGENFSHRSNLIRHQRI [Y3D], the protein stability index falls from 2.23 to 1.84.

Compared with KPSKCTLCGENFSHRSNLIRHQRI [Y3S], KPNKCTLCGENFSHRSNLIRHQRI [Y3N] is higher in protein stability index: 2.11 for the first, 2.47 for the second.

Compared with KPQKCTLCGENFSHRSNLIRHQRI [Y3Q], KPLKCTLCGENFSHRSNLIRHQRI [Y3L] is higher in protein stability index: 2.14 for the first, 2.64 for the second.

Going from KPMKCTLCGENFSHRSNLIRHQRI [Y3M] to KPPKCTLCGENFSHRSNLIRHQRI [Y3P], the protein stability index rises from 1.73 to 1.85.

Compared with KPIKCTLCGENFSHRSNLIRHQRI [Y3I], KPEKCTLCGENFSHRSNLIRHQRI [Y3E] is higher in protein stability index: 1.55 for the first, 1.78 for the second.

First: KPKKCTLCGENFSHRSNLIRHQRI [Y3K]
Second: KPHKCTLCGENFSHRSNLIRHQRI [Y3H]
The protein stability index of the first is higher: 3.17 for the first, 1.34 for the second.

First: KPCKCTLCGENFSHRSNLIRHQRI [Y3C]
Second: KPAKCTLCGENFSHRSNLIRHQRI [Y3A]
The protein stability index of the first is higher: 2.47 for the first, 1.9 for the second.

First: KPRKCTLCGENFSHRSNLIRHQRI [Y3R]
Second: KPYCCTLCGENFSHRSNLIRHQRI [K4C]
The protein stability index of the first is higher: 3.54 for the first, 1.7 for the second.

Compared with KPYLCTLCGENFSHRSNLIRHQRI [K4L], KPYVCTLCGENFSHRSNLIRHQRI [K4V] is higher in protein stability index: 1.84 for the first, 2.87 for the second.

First: KPYNCTLCGENFSHRSNLIRHQRI [K4N]
Second: KPYTCTLCGENFSHRSNLIRHQRI [K4T]
The protein stability index of the first is lower: 1.94 for the first, 2.52 for the second.

Compared with KPYACTLCGENFSHRSNLIRHQRI [K4A], KPYMCTLCGENFSHRSNLIRHQRI [K4M] is lower in protein stability index: 2.32 for the first, 2.23 for the second.

First: KPYPCTLCGENFSHRSNLIRHQRI [K4P]
Second: KPYFCTLCGENFSHRSNLIRHQRI [K4F]
The protein stability index of the first is lower: 1.96 for the first, 2.01 for the second.

Going from KPYGCTLCGENFSHRSNLIRHQRI [K4G] to KPYSCTLCGENFSHRSNLIRHQRI [K4S], the protein stability index falls from 2.35 to 1.9.

Compared with KPYRCTLCGENFSHRSNLIRHQRI [K4R], KPYDCTLCGENFSHRSNLIRHQRI [K4D] is lower in protein stability index: 2.54 for the first, 1.75 for the second.

Compared with KPYYCTLCGENFSHRSNLIRHQRI [K4Y], KPYHCTLCGENFSHRSNLIRHQRI [K4H] is higher in protein stability index: 2.16 for the first, 2.95 for the second.

Compared with KPYQCTLCGENFSHRSNLIRHQRI [K4Q], KPYWCTLCGENFSHRSNLIRHQRI [K4W] is lower in protein stability index: 2.48 for the first, 2.35 for the second.

First: KPYICTLCGENFSHRSNLIRHQRI [K4I]
Second: KPYECTLCGENFSHRSNLIRHQRI [K4E]
The protein stability index of the first is higher: 2.87 for the first, 2.35 for the second.

Compared with KPYKMTLCGENFSHRSNLIRHQRI [C5M], KPYKWTLCGENFSHRSNLIRHQRI [C5W] is lower in protein stability index: 1.67 for the first, 1.61 for the second.

Going from KPYKATLCGENFSHRSNLIRHQRI [C5A] to KPYKTTLCGENFSHRSNLIRHQRI [C5T], the protein stability index falls from 2.52 to 2.09.

Compared with KPYKKTLCGENFSHRSNLIRHQRI [C5K], KPYKETLCGENFSHRSNLIRHQRI [C5E] is lower in protein stability index: 2.44 for the first, 2.19 for the second.

Compared with KPYKNTLCGENFSHRSNLIRHQRI [C5N], KPYKGTLCGENFSHRSNLIRHQRI [C5G] is lower in protein stability index: 2.41 for the first, 2.22 for the second.

Going from KPYKITLCGENFSHRSNLIRHQRI [C5I] to KPYKSTLCGENFSHRSNLIRHQRI [C5S], the protein stability index rises from 1.75 to 2.43.

First: KPYKRTLCGENFSHRSNLIRHQRI [C5R]
Second: KPYKLTLCGENFSHRSNLIRHQRI [C5L]
The protein stability index of the first is lower: 1.86 for the first, 2.47 for the second.

Compared with KPYKPTLCGENFSHRSNLIRHQRI [C5P], KPYKFTLCGENFSHRSNLIRHQRI [C5F] is lower in protein stability index: 2.44 for the first, 1.45 for the second.

First: KPYKVTLCGENFSHRSNLIRHQRI [C5V]
Second: KPYKHTLCGENFSHRSNLIRHQRI [C5H]
The protein stability index of the first is lower: 2.06 for the first, 2.34 for the second.

First: KPYKQTLCGENFSHRSNLIRHQRI [C5Q]
Second: KPYKDTLCGENFSHRSNLIRHQRI [C5D]
The protein stability index of the first is higher: 3.12 for the first, 2.69 for the second.

Compared with KLYKCTLCGENFSHRSNLIRHQRI [P2L], KYYKCTLCGENFSHRSNLIRHQRI [P2Y] is lower in protein stability index: 2.53 for the first, 2.14 for the second.

Going from KRYKCTLCGENFSHRSNLIRHQRI [P2R] to KNYKCTLCGENFSHRSNLIRHQRI [P2N], the protein stability index falls from 3.12 to 2.49.

First: KAYKCTLCGENFSHRSNLIRHQRI [P2A]
Second: KDYKCTLCGENFSHRSNLIRHQRI [P2D]
The protein stability index of the first is higher: 2.7 for the first, 2.3 for the second.

Compared with KKYKCTLCGENFSHRSNLIRHQRI [P2K], KFYKCTLCGENFSHRSNLIRHQRI [P2F] is lower in protein stability index: 2.92 for the first, 2.12 for the second.

Going from KHYKCTLCGENFSHRSNLIRHQRI [P2H] to KMYKCTLCGENFSHRSNLIRHQRI [P2M], the protein stability index falls from 2.49 to 2.05.

First: KIYKCTLCGENFSHRSNLIRHQRI [P2I]
Second: KTYKCTLCGENFSHRSNLIRHQRI [P2T]
The protein stability index of the first is lower: 2.33 for the first, 2.53 for the second.

First: KGYKCTLCGENFSHRSNLIRHQRI [P2G]
Second: KEYKCTLCGENFSHRSNLIRHQRI [P2E]
The protein stability index of the first is higher: 2.77 for the first, 2.67 for the second.

Compared with KSYKCTLCGENFSHRSNLIRHQRI [P2S], KVYKCTLCGENFSHRSNLIRHQRI [P2V] is higher in protein stability index: 2.59 for the first, 2.98 for the second.

Going from KWYKCTLCGENFSHRSNLIRHQRI [P2W] to KCYKCTLCGENFSHRSNLIRHQRI [P2C], the protein stability index falls from 2.05 to 2.02.

First: KQYKCTLCGENFSHRSNLIRHQRI [P2Q]
Second: NPYKCTLCGENFSHRSNLIRHQRI [K1N]
The protein stability index of the first is lower: 2.09 for the first, 2.12 for the second.

Compared with SPYKCTLCGENFSHRSNLIRHQRI [K1S], PPYKCTLCGENFSHRSNLIRHQRI [K1P] is higher in protein stability index: 2.81 for the first, 3.08 for the second.

First: EPYKCTLCGENFSHRSNLIRHQRI [K1E]
Second: LPYKCTLCGENFSHRSNLIRHQRI [K1L]
The protein stability index of the first is higher: 3.25 for the first, 2.25 for the second.

Going from CPYKCTLCGENFSHRSNLIRHQRI [K1C] to TPYKCTLCGENFSHRSNLIRHQRI [K1T], the protein stability index falls from 2.67 to 2.08.

First: VPYKCTLCGENFSHRSNLIRHQRI [K1V]
Second: MPYKCTLCGENFSHRSNLIRHQRI [K1M]
The protein stability index of the first is lower: 1.56 for the first, 2.65 for the second.

Going from WPYKCTLCGENFSHRSNLIRHQRI [K1W] to YPYKCTLCGENFSHRSNLIRHQRI [K1Y], the protein stability index rises from 1.92 to 2.69.

Compared with HPYKCTLCGENFSHRSNLIRHQRI [K1H], IPYKCTLCGENFSHRSNLIRHQRI [K1I] is lower in protein stability index: 2.47 for the first, 2.16 for the second.

Going from RPYKCTLCGENFSHRSNLIRHQRI [K1R] to QPYKCTLCGENFSHRSNLIRHQRI [K1Q], the protein stability index falls from 2.66 to 2.38.

Going from DPYKCTLCGENFSHRSNLIRHQRI [K1D] to FPYKCTLCGENFSHRSNLIRHQRI [K1F], the protein stability index falls from 3.07 to 2.56.

First: APYKCTLCGENFSHRSNLIRHQRI [K1A]
Second: GPYKCTLCGENFSHRSNLIRHQRI [K1G]
The protein stability index of the first is lower: 2.19 for the first, 2.27 for the second.
